Source: publication PMC5714123, “The SMAD3 transcription factor binds complex RNA structures with high affinity”

Key:
[1] = biological target: T1, SMAD3 MH1 (Homo sapiens, UniProt P84022 1-132); assay: EMSA; Hill 3.1; EMSA: 25 mM Tris-HCl (pH not given for binding buffer; RNA stock pH 7.5), 115 mM KCl, 1 mM MgCl2, 1 mM DTT, 20 ng/ul poly I:C, 0.1 mg/ml BSA, 10% glycerol, on ice 2 h; 0.5x TBE gel at 4 C; settings: protein: recombinant; tags: 6xHis-SUMO cleaved; label: 5' 32P; hairpin
[2] = biological target: T1, SMAD3 MH1; assay: EMSA; Hill 3.4; EMSA: 25 mM Tris-HCl (pH not given for binding buffer; RNA stock pH 7.5), 115 mM KCl, 1 mM MgCl2, 1 mM DTT, 20 ng/ul poly I:C, 0.1 mg/ml BSA, 10% glycerol, on ice 2 h; 0.5x TBE gel at 4 C; settings: protein: recombinant; tags: 6xHis-SUMO cleaved; label: 5' 32P; hairpin
[3] = biological target: T1, SMAD3 MH1; assay: EMSA; Hill 3.6; EMSA: 25 mM Tris-HCl (pH not given for binding buffer; RNA stock pH 7.5), 115 mM KCl, 1 mM MgCl2, 1 mM DTT, 20 ng/ul poly I:C, 0.1 mg/ml BSA, 10% glycerol, on ice 2 h; 0.5x TBE gel at 4 C; settings: protein: recombinant; tags: 6xHis-SUMO cleaved; label: 5' 32P (EMSA); hairpin
[4] = biological target: T1, SMAD3 MH1; assay: EMSA; Hill 1.7; EMSA: 25 mM Tris-HCl (pH not given for binding buffer; RNA stock pH 7.5), 115 mM KCl, 1 mM MgCl2, 1 mM DTT, 20 ng/ul poly I:C, 0.1 mg/ml BSA, 10% glycerol, on ice 2 h; 0.5x TBE gel at 4 C; settings: protein: recombinant, tags: 6xHis-SUMO cleaved
[5] = biological target: T1, SMAD3 MH1; assay: EMSA; Hill 1.8; EMSA: 25 mM Tris-HCl (pH not given for binding buffer; RNA stock pH 7.5), 115 mM KCl, 1 mM MgCl2, 1 mM DTT, 20 ng/ul poly I:C, 0.1 mg/ml BSA, 10% glycerol, on ice 2 h; 0.5x TBE gel at 4 C; settings: protein: recombinant, tags: 6xHis-SUMO cleaved
[6] = biological target: T1, SMAD3 MH1; assay: EMSA; Hill 1.6; EMSA: 25 mM Tris-HCl (pH not given for binding buffer; RNA stock pH 7.5), 115 mM KCl, 1 mM MgCl2, 1 mM DTT, 20 ng/ul poly I:C, 0.1 mg/ml BSA, 10% glycerol, on ice 2 h; 0.5x TBE gel at 4 C; settings: protein: recombinant; tags: 6xHis-SUMO cleaved; label: 5' 32P; hairpin
[7] = biological target: T1, SMAD3 MH1; assay: EMSA; Hill 2.1; EMSA: 25 mM Tris-HCl (pH not given for binding buffer; RNA stock pH 7.5), 115 mM KCl, 1 mM MgCl2, 1 mM DTT, 20 ng/ul poly I:C, 0.1 mg/ml BSA, 10% glycerol, on ice 2 h; 0.5x TBE gel at 4 C; settings: protein: recombinant; tags: 6xHis-SUMO cleaved; label: 5' 32P; hairpin with 6x3 internal loop
[8] = biological target: T1, SMAD3 MH1; assay: EMSA; Hill 2.2; EMSA: 25 mM Tris-HCl (pH not given for binding buffer; RNA stock pH 7.5), 115 mM KCl, 1 mM MgCl2, 1 mM DTT, 20 ng/ul poly I:C, 0.1 mg/ml BSA, 10% glycerol, on ice 2 h; 0.5x TBE gel at 4 C; settings: protein: recombinant; tags: 6xHis-SUMO cleaved; label: 5' 32P; hairpin with 1x5 internal loop
[9] = biological target: T1, SMAD3 MH1; assay: EMSA; Hill 1.9; EMSA: 25 mM Tris-HCl (pH not given for binding buffer; RNA stock pH 7.5), 115 mM KCl, 1 mM MgCl2, 1 mM DTT, 20 ng/ul poly I:C, 0.1 mg/ml BSA, 10% glycerol, on ice 2 h; 0.5x TBE gel at 4 C; settings: protein: recombinant, tags: 6xHis-SUMO cleaved
[10] = biological target: T1, SMAD3 MH1; assay: EMSA; Hill 2.5; EMSA: 25 mM Tris-HCl (pH not given for binding buffer; RNA stock pH 7.5), 115 mM KCl, 1 mM MgCl2, 1 mM DTT, 20 ng/ul poly I:C, 0.1 mg/ml BSA, 10% glycerol, on ice 2 h; 0.5x TBE gel at 4 C; settings: protein: recombinant; tags: 6xHis-SUMO cleaved; label: 5' 32P; hairpin with 2x3 internal loop
[11] = biological target: T1, SMAD3 MH1; assay: EMSA; Hill 3.0; EMSA: 25 mM Tris-HCl (pH not given for binding buffer; RNA stock pH 7.5), 115 mM KCl, 1 mM MgCl2, 1 mM DTT, 20 ng/ul poly I:C, 0.1 mg/ml BSA, 10% glycerol, on ice 2 h; 0.5x TBE gel at 4 C; settings: protein: recombinant; tags: 6xHis-SUMO cleaved; label: 5' 32P; hairpin
[12] = biological target: T1, SMAD3 MH1; assay: EMSA; Hill 2.7; EMSA: 25 mM Tris-HCl (pH not given for binding buffer; RNA stock pH 7.5), 115 mM KCl, 1 mM MgCl2, 1 mM DTT, 20 ng/ul poly I:C, 0.1 mg/ml BSA, 10% glycerol, on ice 2 h; 0.5x TBE gel at 4 C; settings: protein: recombinant; tags: 6xHis-SUMO cleaved; label: 5' 32P; hairpin
[13] = biological target: T1, SMAD3 MH1; assay: EMSA; Hill 3.2; EMSA: 25 mM Tris-HCl (pH not given for binding buffer; RNA stock pH 7.5), 115 mM KCl, 1 mM MgCl2, 1 mM DTT, 20 ng/ul poly I:C, 0.1 mg/ml BSA, 10% glycerol, on ice 2 h; 0.5x TBE gel at 4 C; settings: protein: recombinant; tags: 6xHis-SUMO cleaved; label: 5' 32P; hairpin with single-stranded flanks
[14] = biological target: T1, SMAD3 MH1; assay: EMSA; Hill 1.1; EMSA: 25 mM Tris-HCl (pH not given for binding buffer; RNA stock pH 7.5), 115 mM KCl, 1 mM MgCl2, 1 mM DTT, 20 ng/ul poly I:C, 0.1 mg/ml BSA, 10% glycerol, on ice 2 h; 0.5x TBE gel at 4 C; settings: protein: recombinant; tags: 6xHis-SUMO cleaved; label: 5' 32P; structured, multi-loop
[15] = label: 5' 32P, hairpin with 6x3 internal loop

T1 sequence (P84022 1-132): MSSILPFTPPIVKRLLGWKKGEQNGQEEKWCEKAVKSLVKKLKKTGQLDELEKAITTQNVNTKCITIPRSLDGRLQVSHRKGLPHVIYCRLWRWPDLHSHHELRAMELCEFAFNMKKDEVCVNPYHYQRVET

B1: 1a hsa-miR-21 central stem (structured_RNA)
RNA: GGACGCUUAUCAGACUGAUGUUGUUCGCAACACCAGUCGAUGGGCGUCC
Kd [1]: 2500 ± 100 nM

B2: 1b hsa-miR-21 central stem dSBE (structured_RNA)
RNA: GGACGCUUAUAAAACUGAUGUUGUUCGCAACACCAGUUUAUGGGCGUCC
Kd [2]: 2700 ± 100 nM

B3: 16 30-bp hairpin (structured_RNA)
RNA: GGAUCGAUCGAUCGAUCGGCAUCGAUCGGCUUCGGCCGAUCGAUGCCGAUCGAUCGAUCGAUCC
Kd [3]: 4000 ± 200 nM

B4: 17 Group II intron D4A (structured_RNA)
RNA: GGGGUCUCGUAUUGCAGAAAUGACAACAUCUGCCGUAACCAAUCGGGUAAAAGGUGGUCAAAUCAAGCGAGAC
Kd ([4]; label: 5' 32P (EMSA), hairpin with 1x5 and 6x3 internal loops): 190 ± 10 nM

B5: 17a D4a truncation 1 (structured_RNA)
RNA: GGGUCUCGUAUUGCAGAAAUGACAACAUCUUUCGAGGUGGUCAAAUCAAGCGAGAC
Kd [4, 15]: 340 ± 70 nM

B6: 17b D4a truncation 2 (structured_RNA)
RNA: GGGUCUCGUAUUGCAGAAAUGACUUCGGUCAAAUCAAGAGAGAC
Kd [5, 15]: 480 ± 80 nM

B7: 17c D4a truncation 3 (structured_RNA)
RNA: GGGUCUCGUAUUGCAGAAAUAAAUCAAGCGAGAC
Kd [6]: 1500 ± 300 nM

B8: 17d D4a isolated terminal loop (structured_RNA)
RNA: GGGUCUCGUAUUGCAGAAAUGACACAUCUUGCCCGUAACCAAUCGGGUAAGGUGUGUCAAAUCAAUGCGAGAC
Kd [7]: 570 ± 20 nM

B9: 17e D4a isolated apical loop (structured_RNA)
RNA: GGGUCUCGUAUUGCAGAUGACACAUCUGCCGUAACCAAUCGGGUAAAAGGUGUGUCAUCUGCAAUGCGAGAC
Kd [8]: 400 ± 10 nM

B10: 3c hsa-miR-199a-1 stem loop (structured_RNA)
RNA: GGCCAACCCAGUGUUCAGACUACCUGUUCAGGAGGCUCUCAAUGUGUACAGUAGUCUGCACAUUGGUUAGGCC
Kd ([9]; label: 5' 32P, hairpin): 1250 ± 50 nM

B11: 18 ai5-gamma D3 (structured_RNA)
RNA: GGGUAUAAAAAGCUAAUGCCAUAUUGUAAUGAUAUGGAUAAGAAUUAUUAUUCUAAAGAUGAAAAUCUGCUAACUUAUACUG
Kd ([5]; label: 5' 32P (EMSA), four-way junction with bulged stem): 190 ± 30 nM

B12: 19 dsDNA with 1 SBE (dsDNA)
DNA 1: GTATGTCTCAGATGAA
DNA 2: TTCATCTGAGACATAC
Kd ([9]; label: 5' 32P on one strand, blunt): 190 ± 20 nM

B13: 20 NF-kB aptamer (structured_RNA)
RNA: GAUACUUGAAACUGUAAGGUUGGCGUAUC
Kd ([5]; label: 5' 32P, hairpin with 4x3 internal loop): 4400 ± 600 nM

B14: 21 RRE (structured_RNA)
RNA: GGUCUGGGCGCAGCGCAAGCUGACGGUACAGGCC
Kd [10]: 3000 ± 300 nM

B15: 6a hsa-miR-509 central stem (structured_RNA)
RNA: GGACGUACUGCAGACAGUGGGCGUUCGCGCGUACGUCUGUGGGUACGUCC
Kd ([5]; label: 5' 32P, hairpin): 2100 ± 300 nM

B16: 6b hsa-miR-509 central stem dSBE (structured_RNA)
RNA: GGACGUACUGCCAGAAGUGGGCGUUCGCGCGUACUCUGGUGGGUACGUCC
Kd [11]: 3000 ± 300 nM

B17: 9a cel-miR-84 central stem (structured_RNA)
RNA: GGACGUGAGGUAGUAUGUAAGCGUUCGCGCUUUCAACUAACUCGCGUCC
Kd [12]: 2900 ± 100 nM

B18: 9c cel-miR-84 stem loop (structured_RNA)
RNA: GGCAUCUGAGGUAGUAUGUAAUAUUGUAGACUGUCUAUAAUGUCCACAAUGUUUCAACUAACUCGGCUGCC
Kd [12]: 1600 ± 100 nM

B19: 10 hsa-miR-21 extended (structured_RNA)
RNA: GGGUGUUUUGCCUACCAUCGUGACAUCUCCAUGGCUGUACCACCUUGUCGGGUAGCUUAUCAGACUGAUGUUGACUGUUGAAUCUCAUGGCAACACCAGUCGAUGGGCUGUCUGACAUUUUGGUAUCUUUCAUCUGACCAUCCAUAUCCAAUGUUCUCAG
Kd [13]: 700 ± 60 nM

B20: 11 VAI (structured_RNA)
RNA: GGGCACUCUUCCGUGGUCUGGUGGAUAAAUUCGCAAGGGUAUCAUGGCGGACGACCGGGGUUCGAACCCCGGAUCCGGCCGUCCGCCGUGAUCCAUGCGGUUACCGCCCGCGUGUCGAACCCAGGUGUGCGACGUCAGACAACGGGGGAGCGCUC
Kd [14]: 110 ± 20 nM
